# Reference: the supplement of paper PMC9170038
# Test system: MS2 coat protein
# Assay: apparent KD of MS2 coat protein; designed switch direction (-1 OFF switch, 1 ON switch): -1; higher = weaker reporter binding
# How it was run: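 Normalised cluster fluorescence was curve-fitted, and each design's median over clusters is its apparent KD. Before this, SNAP-549-labelled MS2 coat protein was titrated from 0.7 or 1.5 nM, doubling to 3 µM, over RNA switches transcribed on Illumina chips by stalled E. coli RNA polymerase. Titrations had no input, 200 uM small-molecule ligand, or an oligonucleotide input, and steps lasted 0.8–1.5 h (lowest) to 10–20 min (highest).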
# [1] = Eterna round: R95, input ligand: microRNA oligo, concentration not stated
# [2] = input ligand: microRNA oligo, concentration not stated
# [3] = Eterna round: R95, input ligand: FMN 200 uM
# [4] = Eterna round: R95, input ligand: none
Sequence,apparent KD of MS2 coat protein [1] [nM],apparent KD of MS2 coat protein (input ligand: FMN 200 uM) [nM],apparent KD of MS2 coat protein [2] [nM],apparent KD of MS2 coat protein (input ligand: none) [nM],apparent KD of MS2 coat protein [3] [nM],apparent KD of MS2 coat protein [4] [nM]
UUAAUGUGAGGAUAUGGUAAAGAUAAGAUGAUGAAAGAACUCCAGAAGGCACAUGAGGAUCACCCAUGUAGAUG [JL-ex4-2.14 Jieux mod] (puzzle: Exclusion 4),35.6,–,–,–,–,–
"UUAAUUAAUAAUUAAGAUCAUUACAUGAGGAUCACCCAUGUCGAGGAUAUCAGCUCGUUUAGAGCUGAGAAGGCGACAAAUUAU [ExNG3/13-B2] (Eterna round: R96, puzzle: Exclusion NG 3)",–,670,411,473,–,–
"UUAAUUAAUGUGAGGAUAUCUAGAGCUGCGGCUCUAGAGAAGGCACAUGAGGAUCACCCAUGUCUCAAUUAAUU [BmEx4/2-E3] (Eterna round: R97, puzzle: Brourd's mod of Exclusion 4)",–,21.6,–,14.7,–,–
"UUAAUUAAUUAACGCAGCAAGAUCACAUGAGGAUCACCCAUGUAGGAUAUCAGCUCGUGUAGAGCUGAGAAGGACAUAGCUGCG [ExNG3/1-A3] (Eterna round: R96, puzzle: Exclusion NG 3)",–,80.8,17.2,16.8,–,–
"UUAAUUAAUUAAGCGCAAGAUCACAUGAGGAUCACCCAUGUAUAGGAUAUCAGCUCGAUUAGAGCUGAGAAGGAUACAUAGCGC [ExNG3/2-A1] (Eterna round: R96, puzzle: Exclusion NG 3)",–,–,185,–,–,–
"UUAAUUAAUUGCGCAAGAUCACAUGAGGAUCACCCAUGUAUAUAGGAUAUCAGCUCGUUUAGAGCUGAGAAGGAUAUACAGCGC [ExNG3/3-A2] (Eterna round: R96, puzzle: Exclusion NG 3)",–,1320,536,488,–,–
"UUAAUUAAUUUAAUAUAAGAUCACAUGAGGAUCACCCAUGUAUAGGAUAUCAGCUCGAUUAGAGCUGAGAAGGAUACAUAAUAU [ExNG3/2-B1] (Eterna round: R96, puzzle: Exclusion NG 3)",–,135,188,216,–,–
"UUAAUUAAUUUAUUAGAUCCUCACAUGAGGAUCACCCAUGUGCAGGAUAUCAGCUCGAUUAGAGCUGAGAAGGGCACUAUAAAU [ExNG3/10-B1] (Eterna round: R96, puzzle: Exclusion NG 3)",–,65,56.4,62.2,–,–
"UUAAUUACGGUGCUUUAACCUCACAUGAGGAUCACCCAUGUGCAGGAUAUCAGCUCGAUUAGAGCUGAGAAGGGCACUGCACCG [ExNG3/11-A1] (Eterna round: R96, puzzle: Exclusion NG 3)",–,15.1,9.95,12.5,–,–
"UUAAUUAGCAGACUAAUACCUCACAUGAGGAUCACCCAUGUGCAGGAUAUCAGCUCGAUUAGAGCUGAGAAGGGCACUGUCUGC [ExNG3/12-A1] (Eterna round: R96, puzzle: Exclusion NG 3)",–,14.8,8.01,11.3,–,–
"UUAAUUAGCAGGCAAGAUCAUUACAUGAGGAUCACCCAUGUCGAGGAUAUCAGCUCGUGUAGAGCUGAGAAGGCGACAGCCUGC [ExNG3/13-A3] (Eterna round: R96, puzzle: Exclusion NG 3)",–,666,207,334,–,–
"UUAAUUAGCAGGCAAGAUCAUUACAUGAGGAUCACCCAUGUCGAGGAUAUCAGCUCGUUUAGAGCUGAGAAGGCGACAGCCUGC [ExNG3/13-A2] (Eterna round: R96, puzzle: Exclusion NG 3)",–,711,289,417,–,–
"UUAAUUCUGAUUCUUGAAAUACAUGAGGAUCACCCAUGUUCACAGGAUAUUGAUUAUGGUAGUAACAAGAAGGGUGUAUCAUUU [JR_ExcNG3_Sub040] (Eterna round: R96, puzzle: Exclusion NG 3)",–,192,162,111,–,–
"UUAAUUUAAGGGAUAGAUCAUUACAUGAGGAUCACCCAUGUUGAGGAUAUCAGCUCGUUUAGAGCUGAGAAGGCAACAAUAGGG [ExNG3/14-A2] (Eterna round: R96, puzzle: Exclusion NG 3)",–,58.9,60,163,–,–
"UUAGAAAUGUUAGGAUAUUAAUAUUUUUUUAGUAUGAUCUACAUGAGGAUCACCCAUGUUAAAAUUAAGAAGGAACAUUUUAUU [JR_ExcNG2_Sub098] (Eterna round: R96, puzzle: Exclusion NG 2)",–,–,59.7,–,–,–
"UUAGAAUUGUUAGGAUAUUAAUUAUUGUAUAGUAUGAUCUACAUGAGGAUCACCCAUGUUAAAUAUAAGAAGGAACGUUAGAUU [JR_ExcNG2_Sub094] (Eterna round: R96, puzzle: Exclusion NG 2)",–,–,42.3,–,–,–
"UUAGAGUAAUAGGAUAUGCUACGUCACGGCUGUGCAGAAGGAUUAACAUGAGGAUCACCCAUGUGGUGAGUCCU [Eternabot (L1) Solution 31] (Eterna round: R97, puzzle: Exclusion 6)",–,242,–,985,–,–

Sequence,apparent KD of MS2 coat protein [1] [nM],apparent KD of MS2 coat protein (input ligand: FMN 200 uM) [nM],apparent KD of MS2 coat protein [2] [nM],apparent KD of MS2 coat protein (input ligand: none) [nM],apparent KD of MS2 coat protein [3] [nM],apparent KD of MS2 coat protein [4] [nM]
"UUAGCGUAAGUAAGGAUAUGCUGGUCGAAAGAUCAGCAGAAGGUACAUGAGGAUCACCCAUGUGGAUUCGUUAU [Mod of JL 11 - Jieux - Brourd's mod of Exclusion 4] (Eterna round: R97, puzzle: Brourd's mod of Exclusion 4)",–,73,–,27.5,–,–
"UUAGGCUGAAGAUCAAUUAAUUAACAUGAGGAUCACCCAUGUAAGGAUAUCAGCUCGUGUAGAGCUGAGAAGGUACAUGCAGCC [ExNG3/18-A3] (Eterna round: R96, puzzle: Exclusion NG 3)",–,436,135,101,–,–
UUAUAAAGAGUGAGGAUAUGCUGGUCCAUGGAUCAGCAGAAGGCACAUGAGGAUCACCCAUGUAAAAUAAUAUU [Mat - Exclusion 4 - JL Mod - D41] (puzzle: Brourd's mod of Exclusion 4),18.7,–,–,–,–,–
UUAUACGCUGAGGAUAUCAUCACUGAGAGGUGAUGAGAAGGCGGUACAUGAGGAUCACCCAUGUCUAUGGGCAG [Ex-6 Malc#21] (puzzle: Exclusion 6),187,–,–,–,–,–
UUAUACGCUGAGGAUAUCUUCACUGAAAAGUGAAGAGAAGGCGGUACAUGAGGAUCACCCAUGUCUAUGGGCAG [Ex-6 Malc#19] (puzzle: Exclusion 6),388,–,–,–,381,478
UUAUACGUUGAGGAUAUGCGACUUUUUUUAGUUGUAGAAGGCGAUACAUGAGGAUCACCCAUGUUUAUGGGCAU [LRO-Ex6-11] (puzzle: Exclusion 6),137,–,–,–,–,–
UUAUAUAAUGUGAGGAUAUGCUGGUCCUUAGAUCAGCAGAAGGCACAUGAGGAUCACCCAUGUAGUAAAUUUUA [Mat - Exclusion 4 - JL Mod - D11] (puzzle: Brourd's mod of Exclusion 4),15.3,–,–,–,25,16.8
UUAUAUAGAGUGAGGAUAUGCUGGUCCUUGGAUCAGCAGAAGGCACAUGAGGAUCACCCAUGUAAUAUAUUAUU [Mat - Exclusion 4 - JL Mod - D37] (puzzle: Brourd's mod of Exclusion 4),21.1,–,–,–,–,–
"UUAUGUAAUGUAGGAUAUCGGUCAGUUUCUGAUCGAGAAGGACAUGAGGAUCACCCAUGUAAGGCUACCGGUUUCUGGUGGCCU [JL ENG1 3.51] (Eterna round: R96, puzzle: Exclusion NG 1)",–,137,20.7,28.5,–,–
"UUAUUACAAGCAAGAUCUCACAUGAGGAUCACCCAUGUGCUCGUCUUAUAAGGUACUGUGACGAAAGUCACGGUACC [Eli 100 v1] (Eterna round: R97, puzzle: Sensor, turn-off variant 1)",–,14.8,–,17.3,–,–
UUAUUACGAGGAUAUCGUUUUUAUCACAUGAGGAUCACCCAUGUAAUUUAUGUUUCGUUUCGAGAAGGCGUUUGUU [JR_E5_Sub067] (puzzle: Exclusion 5),23.3,–,–,–,–,–
"UUAUUAUAUGAAGGAUAUACUUAACAUGAGGAUCACCCAUGUGGUGUUGUGAGUGAGUGAGUUUAGUAGAAGGUCAAGUAUUUU [JMF's solution 51] (Eterna round: R96, puzzle: Exclusion NG 2)",–,417,494,341,–,–
"UUAUUAUAUGUAGGAUAUGCAUAUUAUUAUUAUGCAGAAGGACAUGAGGAUCACCCAUGUAUAUUAUUAUUAUAUAUUAUAUAU [Title] (Eterna round: R96, puzzle: Exclusion NG 1)",–,–,23.6,–,–,–
"UUAUUAUAUGUAGGAUAUGCAUAUUAUUAUUAUGCAGAAGGACAUGAGGAUCACCCAUGUAUAUUGUUGUUAUGUAUUAUAUAU [Title] (Eterna round: R96, puzzle: Exclusion NG 1)",–,40.4,24.1,31.3,–,–
"UUCACAUGGACAUGAGAUCACAUGAGGAUCACCCAUGUGAAUAACAAGCUUUUUGCUCGUCUUAUGUCCAAUAAUAG [Stov1/14-C2] (Eterna round: R97, puzzle: Sensor, turn-off variant 1)",–,13.7,–,12.6,–,–
UUCAGACAUGAGGAUCACCCAUGUGAGGAUAUGAUGCGAUCGUCGAAAGACGAUAGCAUCAGAAGGCACGUAUG [Fiskers Ex 1 - 16] (puzzle: Exclusion 1),97.8,–,–,–,–,–
UUCAGACAUGAGGAUCACCCAUGUGAGGAUAUGAUGCGAUCGUCGAAAGACGAUAGCAUCAGAAGGUACAAAUG [Fiskers Ex 1 - 19] (puzzle: Exclusion 1),61,–,–,–,–,–
